# Laboratory results: publication PMC5014727 (Structure (London, England : 1993), 2016)
# Several values for one entry are separate records, joined by “and”; a condition that tells them apart may be missing. Identical values can stand only once.
# B1: chemically ligated sRAGE (extracellular soluble RAGE, VC1 ligated to C2) (domain or fragment, UniProt Q15109 23-342, looked up)
# chain: AQNITARIGEPLVLKCKGAPKKPPQRLEWKLNTGRTEAWKVLSPQGGGPWDSVARVLPNGSLFLPAVGIQDEGIFRCQAMNRNGKETKSNYRVRVYQIPGKPEIVDSASELTAGVPNKVGTCVSEGSYPAGTLSWHLDGKPLVPNEKGVSVKEQTRRHPETGLFTLQSELMVTPARGGDPRPTFSCSFSPGLPRHRALRTAPIQPRVWEPGCSAEVQLVVEPEGGAVAPGGTVTLTCEVPAQPSPQIHWMKDGVPLPLPPSPVLILPEIGPQDQGTYSCVATHSSHGPQESRAVSISIIEPGEEGPTAGSVGGSGLGTLA
# Assays:
# [1] = biological target: sRAGE ECD (Homo sapiens) (UniProt Q15109); conditions: cited from earlier work
# [2] = biological target: full length RAGE fused with yellow fluorescence protein (human) (UniProt Q15109); assay: FRET or BRET
# [3] = biological target: B1; assay: ELISA
# [4] = biological target: the molecule itself; assay: cross-linking
# [5] = biological target: the molecule itself; assay: 15N NMR relaxation
molecule,measurement,setting,value
sRAGE ECD (from UniProt Q15109),Kd,[1],100 µM
ΔDAD-DIAPH1 fused with cyan fluorescent protein (from UniProt O60610 1-1272) (natural protein),FRET efficiency (with Ca2+-S100B),[2],10%
same,FRET efficiency (without Ca2+-S100B),[2],8%
Ca2+-S100B dimer (ligand) MSELEKAMVALIDVFHQYSGREGDKHKLKKSELKELINNELSHFLEEIKEQEVVDKVMETLDNDGDGECDFQEFMAFVAMVTTACHEFFEHE,Kd,[3],0.49 ± 0.043 µM
B1,stoichiometry N,[4],2 and 3 and 4
same,Kd,[5],120 ± 12 µM
